Source: patent publication US20200277397A1 (Genmab, published 2020)

Legend:
[1] = biological target: T1, full length cynomolgus monkey 5T4 (cynomolgus monkey, UniProt Q4R8Y9 35-420); experiment: flow cytometry, HEK-293 cells transfected with cynomolgus monkey 5T4 (right panel), PE anti-human IgG F(ab')2, MFI PE
T1 construct: Uniprot Q4R8Y9; also called cynomolgus monkey 5T4 on HEK-293 cells
T1 sequence: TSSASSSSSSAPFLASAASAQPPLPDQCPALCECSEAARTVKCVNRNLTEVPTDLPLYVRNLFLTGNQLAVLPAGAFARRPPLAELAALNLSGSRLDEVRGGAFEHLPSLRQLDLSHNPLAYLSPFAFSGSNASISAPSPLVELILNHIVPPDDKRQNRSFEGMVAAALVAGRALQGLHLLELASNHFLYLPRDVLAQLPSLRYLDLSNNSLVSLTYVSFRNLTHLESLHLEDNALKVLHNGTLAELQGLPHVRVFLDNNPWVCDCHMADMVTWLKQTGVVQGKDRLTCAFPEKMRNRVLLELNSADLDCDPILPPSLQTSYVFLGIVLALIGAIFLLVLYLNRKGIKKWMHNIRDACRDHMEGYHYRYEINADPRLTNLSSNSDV

[2] = biological target: T2, full length human 5T4 (human, UniProt Q13641 32-420); experiment: flow cytometry, HeLa cells, PE anti-human IgG F(ab')2, MFI PE
T2 construct: Uniprot Q13641; Used here also for endogenous 5T4 on the human tumour cell lines
T2 sequence: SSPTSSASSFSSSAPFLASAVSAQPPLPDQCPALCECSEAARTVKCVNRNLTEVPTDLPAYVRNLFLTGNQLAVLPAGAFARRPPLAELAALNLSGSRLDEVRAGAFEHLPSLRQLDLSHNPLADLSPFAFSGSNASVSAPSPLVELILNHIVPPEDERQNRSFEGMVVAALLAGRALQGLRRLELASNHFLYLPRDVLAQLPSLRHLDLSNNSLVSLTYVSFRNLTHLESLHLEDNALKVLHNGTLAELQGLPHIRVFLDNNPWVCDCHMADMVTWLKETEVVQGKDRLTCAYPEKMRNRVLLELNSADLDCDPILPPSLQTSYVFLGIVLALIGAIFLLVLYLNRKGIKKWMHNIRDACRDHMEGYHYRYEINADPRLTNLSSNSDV

binding result [1]: binds
binding result [2]: binds
B1: bsIgG1-huCD3-H101G-FEALx5T4-A3-FEAR (bispecific antibody)
heavy 1: not shown
VL 1: not shown
heavy 2: EVQLVESGGGLVQPKGSLKLSCAASGFTFNTYAMNWVRQAPGKGLEWVARIRSKSNNYATYYADSVKDRFTISRDDSQSMLYLQMNNLKTEDTAMYYCVRQWDYDVRAMNYWGQGTSVTVSSASTKGPSVFPLAPSSKSTSGGTAALGCLVKDYFPEPVTVSWNSGALTSGVHTFPAVLQSSGLYSLSSVVTVPSSSLGTQTYICNVNHKPSNTKVDKRVEPKSCDKTHTCPPCPAPEFEGGPSVFLFPPKPKDTLMISRTPEVTCVVVAVSHEDPEVKFNWYVDGVEVHNAKTKPREEQYNSTYRVVSVLTVLHQDWLNGKEYKCKVSNKALPAPIEKTISKAKGQPREPQVYTLPPSREEMTKNQVSLTCLVKGFYPSDIAVEWESNGQPENNYKTTPPVLDSDGSFFLYSRLTVDKSRWQQGNVFSCSVMHEALHNHYTQKSLSLSPGK
VL 2: DIVMTQSHIFMSTSVGDRVSITCKASQDVDTAVAWYQQKPGQSPKLLIYWASTRLTGVPDRFTGSGSGTDFTLTISNVQSEDLADYFCQQYSSYPYTFGGGTKLEIK
